# Test results taken from article PMC3237451, “Missense Mutation in the Second RNA Binding Domain Reveals a Role for Prkra (PACT/RAX) during Skull Development”.
# T1: His-RAX (S130P) (Mus musculus (cDNA from L929 cells), UniProt Q9WTX2 1-313, S130P)
# T1 sequence: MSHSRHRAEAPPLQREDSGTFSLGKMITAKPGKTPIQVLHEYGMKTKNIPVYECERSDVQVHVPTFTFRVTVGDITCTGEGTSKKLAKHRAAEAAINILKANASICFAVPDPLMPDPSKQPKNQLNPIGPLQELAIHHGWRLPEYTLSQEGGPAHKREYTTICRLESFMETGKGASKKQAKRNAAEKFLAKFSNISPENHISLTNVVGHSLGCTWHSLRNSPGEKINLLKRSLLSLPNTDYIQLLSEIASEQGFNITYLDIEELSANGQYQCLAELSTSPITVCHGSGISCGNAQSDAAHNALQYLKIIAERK
# Target: T1, His-RAX (S130P)
# Experiment: EMSA; 20 mM Tris pH 7.5, 50 mM KCl, 2 mM MgCl2, 2 mM MnCl2, 5% glycerol; EMSA 15 min at room temperature, 5% acrylamide gel in 0.25x TBE run cold
# Conditions: protein: recombinant; blunt
binder,measurement,value
30-bp dsRNA probe (dsRNA) RNA 1: GGGAACAAAAGCUGGGUACCGGGCCCCCCC RNA 2: GGGGGGGCCCGGUACCCAGCUUUUGUUCCC,binding result,no binding
